Numbering of substitutions follows the chain as printed.
B1: VH4/Vk2 (antibody, IgG1, V domains shown)
VH: QVQLVQSGAEVKKPGSSVKVSCQGSGYSFPTHWITWVRQAPGQGLEWMGTIDPTDSYNFYGPSFQGRVTITADSSTSTAYMELSSLRSEDTAMYYCARDGNYYDSRGYYYDTFDMWGQGTLVTVSS
VL: DIQMTQSPSSLSASVGDRVTITCRASQGISTYLAWYQQKPGKAPKLLIYSASTLESGVPSRFSGSGSGTDFTLTISSLQPEDFATYYCQQADSFPLTFGGGTKVEIK
notes: Full IgG1/kappa expressed in HEK 293 EBNA cells
B2: VH0/Vk0 (antibody, IgG1, V domains shown)
VH: QVQLVQSGAEVKKPGESLRISCQGSGYSFPTHWITWVRQMPGKGLEWMGTIDPTDSYNFYGPSFQGHVTISADSSSSTAYLQWSSLKASDTAMYYCARDGNYYDSRGYYYDTFDMWGQGTLVTVSS
VL: B1 VL with S10F, K42T, F83S
notes: Full IgG1/kappa with the variable domains of 1E4; also called 1E4 antibody variant including the constant domain where the residues were substituted
B3: VH2/Vk0 (antibody, IgG1, V domains shown)
VH: B2 VH with Q1E, R19K, Q23K, H67Q, S74K, S76I
VL: B1 VL with S10F, K42T, F83S
notes: as for B1
B4: VH0/Vk2 (antibody, IgG1, V domains shown)
VH: B2 VH
VL: B1 VL
notes: as for B1
B5: VH5/Vk0 (antibody, IgG1, V domains shown)
VH: B1 VH with M93V
VL: B1 VL with S10F, K42T, F83S
notes: as for B1
B6: VH6/Vk2 (antibody, IgG1, V domains shown)
VH: B1 VH with Q23K, G24A, S74K, M93V
VL: B1 VL
notes: as for B1
B7: VH4/Vk5 (antibody, IgG1, V domains shown)
VH: B1 VH
VL: EIVLTQSPGTLSLSPGERATLSCRASQGISTYLAWYQQKPGQAPRLLIYSASTLESGIPDRFSGSGSGTDFTLTISRLEPEDFATYYCQQADSFPLTFGGGTKVEIK
notes: as for B1
B8: VH4/Vk0 (antibody, IgG1, V domains shown)
VH: B1 VH
VL: B1 VL with S10F, K42T, F83S
notes: as for B1
B9: VH6/Vk0 (antibody, IgG1, V domains shown)
VH: B1 VH with Q23K, G24A, S74K, M93V
VL: B1 VL with S10F, K42T, F83S
notes: as for B1
B10: VH5/Vk2 (antibody, IgG1, V domains shown)
VH: B1 VH with M93V
VL: B1 VL
notes: as for B1
B11: VH3/Vk2 (antibody, IgG1, V domains shown)
VH: B1 VH with M81L, E82Q, L83W, R87K, S88A, E89S
VL: B1 VL
notes: as for B1
B12: VH2/Vk5 (antibody, IgG1, V domains shown)
VH: B2 VH with Q1E, R19K, Q23K, H67Q, S74K, S76I
VL: B7 VL
notes: as for B1
B13: VH5/Vk4 (antibody, IgG1, V domains shown)
VH: B1 VH with M93V
VL: B7 VL with V3Q, L4M, I58V
notes: as for B1
B14: VH6/Vk4 (antibody, IgG1, V domains shown)
VH: B1 VH with Q23K, G24A, S74K, M93V
VL: B7 VL with V3Q, L4M, I58V
notes: as for B1
B15: VH5/Vk3 (antibody, IgG1, V domains shown)
VH: B1 VH with M93V
VL: B7 VL with E1D, V3Q, L4M, T10F, I58V
notes: as for B1
B16: VH5/Vk5 (antibody, IgG1, V domains shown)
VH: B1 VH with M93V
VL: B7 VL
notes: as for B1
B17: VH4/Vk4 (antibody, IgG1, V domains shown)
VH: B1 VH
VL: B7 VL with V3Q, L4M, I58V
notes: as for B1
B18: VH4/Vk3 (antibody, IgG1, V domains shown)
VH: B1 VH
VL: B7 VL with E1D, V3Q, L4M, T10F, I58V
notes: as for B1
B19: VH6/Vk3 (antibody, IgG1, V domains shown)
VH: B1 VH with Q23K, G24A, S74K, M93V
VL: B7 VL with E1D, V3Q, L4M, T10F, I58V
notes: as for B1
B20: VH6/Vk5 (antibody, IgG1, V domains shown)
VH: B1 VH with Q23K, G24A, S74K, M93V
VL: B7 VL
notes: as for B1

Each binder was assayed against T1, human c-Met (Sino Biological) (human, UniProt P08581 25-932, limits assumed) (assay: derived from the Biacore KD, normalised to VH0/Vk0).
T1 construct: Analyte in the Biacore assay; also called antigen (c-Met); printed as "human c-Met antibody (Sino Biological, Beijing, China)"
Procedure: (§1) The candidate antibodies selected in Example 4 were measured for binding affinity for the antigen (c-Met) with the aid of Biacore. […] The anti-c-Met antibodies to be analyzed were immobilized on Protein A CM5 chips (GE Healthcare, Little Chalfont, UK) through which human c-Met antibody (Sino Biological, Beijing, China) with various concentrations ranging 0.15 to 2 nM was allowed to pass, thereby acquiring sensorgrams. On the basis of the acquired sensorgrams, association constants kₒₙ and dissociation constants koff were measured to calculate Ko value, the ratio koff/kₒₙ.
(§2) In order to select a final candidate group from the 21 candidate antibodies selected in Example 4, comparison was made according to criteria specified into expression level, binding affinity for antigen, thermal stability, and biopotency. As a rule, the expression level is considered to be the most important index when time and cost are taken into consideration from a point of view of production. […] Thereafter, degrees of improvement in each of the remaining candidate antibodies compared to the reference antibody (VH0/Vk0) were digitized with regard to the selected indices. For normalization, analysis index measurements for individual candidate antibodies were divided by average values to give ratios (index 1) which were in turn divided by the measurement for the antibody VH0/Vk0 (index 2) (Tables 6 to 9). In addition, the measurements for the four indices were multiplied for comprehensive comparison of the four indices of the candidate antibodies. The final results (index 3) are listed in a descending order in Table 10.

T1 sequence (P08581 25-932 limits assumed): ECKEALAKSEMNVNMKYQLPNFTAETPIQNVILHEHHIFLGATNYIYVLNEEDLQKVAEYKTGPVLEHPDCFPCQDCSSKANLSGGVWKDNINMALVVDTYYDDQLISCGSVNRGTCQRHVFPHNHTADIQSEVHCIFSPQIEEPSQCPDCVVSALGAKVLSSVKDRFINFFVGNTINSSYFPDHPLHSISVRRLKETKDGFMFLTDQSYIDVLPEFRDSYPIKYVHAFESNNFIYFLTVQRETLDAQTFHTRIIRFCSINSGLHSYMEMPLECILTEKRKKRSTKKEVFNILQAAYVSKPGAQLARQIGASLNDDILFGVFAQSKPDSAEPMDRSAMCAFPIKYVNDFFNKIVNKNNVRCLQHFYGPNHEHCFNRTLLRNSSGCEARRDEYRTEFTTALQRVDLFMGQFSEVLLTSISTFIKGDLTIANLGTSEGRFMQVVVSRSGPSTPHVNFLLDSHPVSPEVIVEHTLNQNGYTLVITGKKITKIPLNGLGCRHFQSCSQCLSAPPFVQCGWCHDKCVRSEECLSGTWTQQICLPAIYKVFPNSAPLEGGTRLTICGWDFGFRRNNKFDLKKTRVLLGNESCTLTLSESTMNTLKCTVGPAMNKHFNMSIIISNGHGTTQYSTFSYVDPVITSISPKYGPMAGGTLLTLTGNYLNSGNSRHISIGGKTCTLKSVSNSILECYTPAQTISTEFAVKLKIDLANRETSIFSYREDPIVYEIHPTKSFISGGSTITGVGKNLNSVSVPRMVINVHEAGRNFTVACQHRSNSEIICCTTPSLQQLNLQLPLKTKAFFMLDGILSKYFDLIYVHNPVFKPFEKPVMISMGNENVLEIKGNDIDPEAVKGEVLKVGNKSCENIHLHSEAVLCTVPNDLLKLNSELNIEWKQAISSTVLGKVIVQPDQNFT

| Index 2 (binding affinity, inverse KD relative to VH0/Vk0) | Binder |
| --- | --- |
| 1.23 | B1 |
| 1 | B2 |
| 0.974 | B3 |
| 1.02 | B4 |
| 1.48 | B5 |
| 1.18 | B6 |
| 0.989 | B7 |
| 1.32 | B8 |
| 1.26 | B9 |
| 1.24 | B10 |
| 1.09 | B11 |

These binders were tested against T1, human c-Met (Sino Biological) (assay: derived from the Biacore KD, printed 'Average' 3.52 x10^-10 M divided by the KD).
Procedure: as §1, §2

| Index 1 (binding affinity, inverse KD relative to the Average 3.52) | Binder |
| --- | --- |
| 0.832 | B1 |
| 0.677 | B2 |
| 0.659 | B3 |
| 0.688 | B4 |
| 1 | B5 |
| 0.8 | B6 |
| 0.669 | B7 |
| 0.891 | B8 |
| 0.85 | B9 |
| 0.838 | B10 |
| 0.738 | B11 |

These binders were tested against c-Met protein receptors on HUVEC (human, UniProt P08581 25-1390) (assay: cell-based or functional assay).
c-Met protein receptors on HUVEC, sequence (P08581 25-1390): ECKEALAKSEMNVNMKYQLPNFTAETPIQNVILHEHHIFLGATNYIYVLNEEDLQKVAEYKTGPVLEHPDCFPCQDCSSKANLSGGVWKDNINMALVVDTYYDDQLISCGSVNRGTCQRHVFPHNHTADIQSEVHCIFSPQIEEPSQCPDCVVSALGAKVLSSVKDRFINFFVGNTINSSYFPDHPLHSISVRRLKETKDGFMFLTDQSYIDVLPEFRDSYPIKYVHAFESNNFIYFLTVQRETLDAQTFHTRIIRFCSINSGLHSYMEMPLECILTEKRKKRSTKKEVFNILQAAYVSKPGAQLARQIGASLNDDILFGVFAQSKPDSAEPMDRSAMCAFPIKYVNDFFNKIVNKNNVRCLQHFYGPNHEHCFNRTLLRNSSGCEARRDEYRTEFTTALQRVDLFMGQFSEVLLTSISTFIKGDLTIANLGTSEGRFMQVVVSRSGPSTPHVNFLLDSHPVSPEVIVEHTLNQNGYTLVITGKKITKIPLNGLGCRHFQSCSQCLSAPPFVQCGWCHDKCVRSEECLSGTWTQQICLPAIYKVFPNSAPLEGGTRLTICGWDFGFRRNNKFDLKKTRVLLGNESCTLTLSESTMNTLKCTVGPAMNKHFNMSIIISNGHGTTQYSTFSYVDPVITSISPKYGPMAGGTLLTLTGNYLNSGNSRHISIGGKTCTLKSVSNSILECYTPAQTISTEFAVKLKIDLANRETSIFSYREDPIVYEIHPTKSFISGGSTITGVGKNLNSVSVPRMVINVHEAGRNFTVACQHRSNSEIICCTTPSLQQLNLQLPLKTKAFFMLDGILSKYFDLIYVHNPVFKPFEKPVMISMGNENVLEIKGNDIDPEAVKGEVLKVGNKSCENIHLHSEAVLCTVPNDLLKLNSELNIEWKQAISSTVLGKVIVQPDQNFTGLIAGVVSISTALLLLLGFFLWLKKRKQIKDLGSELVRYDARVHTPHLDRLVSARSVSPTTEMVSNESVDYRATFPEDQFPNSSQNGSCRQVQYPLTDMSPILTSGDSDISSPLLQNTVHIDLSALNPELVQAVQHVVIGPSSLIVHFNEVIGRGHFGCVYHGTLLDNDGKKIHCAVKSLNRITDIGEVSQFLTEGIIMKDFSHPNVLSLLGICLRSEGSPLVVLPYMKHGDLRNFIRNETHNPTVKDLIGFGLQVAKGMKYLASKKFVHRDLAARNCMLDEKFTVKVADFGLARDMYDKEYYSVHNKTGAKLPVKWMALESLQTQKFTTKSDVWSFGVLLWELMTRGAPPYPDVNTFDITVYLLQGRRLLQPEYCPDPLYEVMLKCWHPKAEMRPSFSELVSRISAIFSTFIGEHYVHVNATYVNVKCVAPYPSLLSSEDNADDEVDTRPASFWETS

| Index 1 (Relative Migration divided by the Average 157.5), HUVEC migration assay | Index 2 (Relative Migration relative to VH0/Vk0), HUVEC migration assay | Relative Migration (%), HUVEC migration assay, 90 ng/ml [%] | Binder |
| --- | --- | --- | --- |
| 1.13 | 1.19 | 177 | B1 |
| 0.951 | 1 | 150 | B2 |
| 0.993 | 1.04 | 156 | B3 |
| 1.03 | 1.09 | 163 | B4 |
| 0.813 | 0.855 | 128 | B5 |
| 0.979 | 1.03 | 154 | B6 |
| 1.09 | 1.14 | 171 | B7 |
| 0.773 | 0.812 | 122 | B8 |
| 0.962 | 1.01 | 152 | B9 |
| 1.12 | 1.18 | 176 | B10 |
| 1.04 | 1.09 | 164 | B11 |

These binders were tested against T1, human c-Met (Sino Biological) (assay: SPR (Biacore T200), IgG captured on Protein A CM5 chip, c-Met 0.15-2 nM as analyte).
Procedure: as §1

| Kd [pM] | Relative KD to VMDO2 VH0/Vk0 | Binder |
| --- | --- | --- |
| 685 | 1.32 | B12 |
| 423 | 0.81 | B1 |
| 520 | 1 | B2 |
| 534 | 1.03 | B3 |
| 512 | 0.98 | B4 |
| 349 | 0.67 | B13 |
| 352 | 0.68 | B5 |
| 391 | 0.75 | B14 |
| 402 | 0.77 | B15 |
| 506 | 0.97 | B16 |
| 440 | 0.85 | B6 |
| 526 | 1.01 | B7 |
| 372 | 0.72 | B17 |
| 395 | 0.76 | B8 |
| 422 | 0.81 | B18 |
| 414 | 0.8 | B9 |
| 420 | 0.81 | B10 |
| 431 | 0.83 | B19 |
| 477 | 0.92 | B11 |
| 557 | 1.07 | B20 |
